Patent publication US20230332166A1, “FORMATE-INDUCIBLE PROMOTERS AND METHODS OF USE THEREOF” (Imperial College Innovations Ltd, priority 2020, published 2023)

B1: Yali0F15983: putative Y. lipolytica FDH gene; promoter region SEQ ID NO: 3 (1 Kb) and 19 (1.5 Kb) (nucleic acid, listed as Yarrowia lipolytica)
DNA: ATGAAGGTCCTTCTTATTCTCTACTCTGCCGGTTCTCACGCCGTTGACGAGCCCAAGCTACTCGGTTGCACTGAGAACGAGCTCGGTCTCCGAAAGTGGCTCGAGTCCCGGGGCCACACGCTTGTGACCACCTCTTCAAAGGAGGGAGCCGACTCTGTGCTCGACAAGGAGATTGTCGATGCCGACATTGTCATCACTACTCCCTTCCACCCCGGTTACATCACCCGAGAGCGAATCGCCAAGGCCAAGAACCTCAAAATTTGCATCACTGCCGGTGTTGGTTCGGACCACGTCGATCTTGATGCTGCCAACGAGCGAGATATTGCCGTTCTCGAGGTCACTGGCTCCAACGTGCAGTCTGTGGCTGAGCACGTTGTCATGACCATGCTGGTCCTGGTCCGAAACTTTGTGCCTGCCCACGAGCAGGTCATGGCTGGTGGCTGGGACGTTGCTGCTGTCGCCAAGGACTCCTACGACATTGAGGGAAAGGTCATTGGTACTGTGGGAGGTGGCCGAATTGGTCAGCGAGTCCTAAAGCGAGTTGCTCCCTTCAACCCTAAGGAGATGCTCTACTACGACTACCAGGGTCTGTCTGCTGAGACCGAGAAGGAGCTGAACTGCCGACGAGTCGAGAAGCTCGAGGATATGCTTGCCCAGTGTGATATCGTCACCATCAACTGTCCCCTCCACGAGTCCACCAAGGGTCTCTTCAACAAGGAGATGCTCTCTCACATGAAGAAAGGTGCCTGGCTTGTCAACACCGCTCGAGGAGCCATCTGTGTCAAGGAAGACGTTGCTGAGGCTCTCAAGAACGGCCAGCTGCGAGGCTACGGAGGTGACGTCTGGTTCCCCCAGCCTGCTCCCGCTGACCACCCCTGGAGATCCATGCGAAACAAGTACGGAGCTGGAAACGCCATGACCCCCCATATCTCCGGTACTTGCATCGATGCCCAGGTTCGGTACGCCCAGGGAACCAAGAACATTCTCGACATGTTCTTCTCCGGTAAGCAGGACTACCGACCCCAGGACATCATCTGCATCAACGGTCACTACGGAACCAAGGCCTACGGTGATGACAAGGAGCATGCTAAAAAGTAGGCTGGACGTCGAAATAAACACATTGTTCATCTCTGGGTAGCCCAATAGTAAATAGGTAAGCTGTGATCATTA
modifications: YALI0F15983g
B2: Yali0C14344: putative Y. lipolytica FDH gene; promoter region SEQ ID NO: 7 (1 Kb) and 23 (1.5 Kb) (nucleic acid, listed as Yarrowia lipolytica)
DNA: ATGAAGGTCCTTCTTGTTCTATACGATGCCGGCTCCCACGCCAAGGATGAGCCAAAGCTACTTGGATGCACCGAGAACGAGCTCGGAATCAGAGACTGGCTCGAGTCACAGGGCCACACTCTTGTCACCACCTCTTCCAAGGACGGTGCCCACTCTGTGCTTGACAAGGAGATTGTCGATGCCGATGTAGTCATCACCACCCCTTTCCACCCCGGCTACATCAACAAGGAGCGAATTGACAAGGCCAAAAAGCTCAAGATCTGCATCACCGCTGGTGTTGGCTCCGACCACGTCGATCTCGACGCAGCCAACGCCCGAGATATCTCTGTTCTTGAGGTTACTGGTTCTAATGTCCAGTCTGTCGCAGAGCACGTCGTTATGACCATGCTGGTGCTGGTCCGAAACTTTGTGCCCGCCCACGAGCAGATCATCGAGGGCGGCTGGAATGTGGCTGCTGTCGCCAAGGACTCGTACGATCTCGAGGGAAAGGTCATTGGCACCGTTGGAGGCGGTCGAATCGGCCAGCGAGTGCTCAAGCGATGCAAGCCCTTTGACCCCATGGAGATGCTCTACTACGACTACCAGGCTATGCCAGCTGATGTGGAGAAGGAGATTGGATGCCGACGAGTCGAGTCTCTGGAGGAGAAGCTCTCTCTCTGTGACGTTGTCACCATCAACTGTCCCCTTCACGCCTCCACCAAGGGTCTCTTCAACAAGGAGCTCATTTCCCACATGAAGGACGGCGCTTGGCTCGTCAACACTGCTCGAGGAGCCATCTGCGTCACCGAGGACATTGTCGACGCTCTCGAGTTGGGCAAGATCCGAGGATATGGCGGTGACGTCTGGTTCCCCCAGCCTGCCTCCAAGGACCACCCCTGGAGAACCATGCGAAATAAGTACGGCGGTGGAAACGCCATGACTCCCCACATCTCCGGCACTTCCATCGACGCCCAGGGCCGATACGCTGAGGGTACCAAGAAGATCCTCGAGGTCTTTTTCTCGGGAAAGCAGAATTACAGACCCCAGGATATCATCTGTATCAACGGCCATTATGGTACAAAGGCCTACGGTGACGACAAGGAGCACAAGGGGCACCAGCAGAAGTGA
modifications: YALI0C14344g
B3: Yali0F28765: putative Y. lipolytica FDH gene; its formate-inducible promoter region is SEQ ID NO: 11 (1 Kb) and 27 (1.5 Kb) (nucleic acid, listed as Yarrowia lipolytica)
DNA: ATGAAGGTCCTTCTCATTCTCTACGACGCCGGCTCCCACGCTGTTGATGAGCCCAAACTACTCGGATGCACCGAGAACGAGCTCGGTATCCGATCATGGCTCGAGTCCCAGGGCCATACTCTGGTAACCACCTCTTCCAAGGATGGCGATGACTCTGTCCTCGACAAGGAAATTGTCGACGCCGATGTCGTCATCACCACTCCCTTCCATCCCGGTTACATTACCCGAGAGCGAATTGCCAAGGCCAAGAACCTCAAAATATGTGTTACTGCAGGTGTTGGTTCCGACCATGTCGACCTTGATGCCGCCAACGAGCGAGACATTGCCGTTCTCGAGGTCACTGGTTCCAACGTCCAATCCGTCGCTGAGCACGTCGTCATGACCATGCTCGTCCTCGTCCGAAACTTTGTCCCCGCTCACGAGCAGGTCATGGCTGGTGGTTGGGATGTTGCTGCTGTCGCCAAGGACTCTTATGACATCGAGGGTAAGGTCATTGGTACCGTTGGTGGTGGCCGAATTGGTCAGCGAGTCCTCAAGCGAGTGGCTCCCTTCAACCCTAAGGAGATGCTCTACTACGACTACCAAGGACTTTCTGCTGAGACCGAGCAGGAGCTCAACTGTCGACGAGTCGAGAAGCTTGAAGATATGCTTGCCCAATGTGACATTGTCACCATTAACTGTCCTCTCCACGAGTCTACCAAGGGCCTCTTCAACAAGGAGATGCTCTCTCACATGAAGAAGGGTGCTTGGCTTGTCAACACCGCTCGAGGAGCTATCTGTGTCAAGGAGGATGTCGCCGAGGCTCTTGCCAACGGCCAGCTTCGAGGCTACGGTGGTGATGTGTGGTTCCCTCAGCCAGCCCCTGCCGACCACCCTTGGAGATCGATGCGAAACAAGTACGGCGCCGGTAACGCTATGACCCCACACATATCTGGTACTTCCATTGACGCCCAGGCCCGATACGCCGAGGGCACCAAGAACATTCTCGAGGTCTTCTTCTCCGGAAAGCAGGACTACCGACCCCAGGATATCATCTGTATCAACGGTCACTACGGTACCAAGGCTTACGGCGACGACAAGGAGCACGCCAAGAAATAGATAATATTCATTAACATACAAATACAGTCTACAGTCCTATATCGATTCGGTCGCTTCGAG
modifications: YALI0F28765g
B4: Yali0E14256: Y. lipolytica FDH gene; promoter region SEQ ID NO: 8 (1 Kb) and 24 (1.5 Kb) (nucleic acid, listed as Yarrowia lipolytica)
DNA: ATGAAGATCCTTCTTGTTCTCTACGACGCCGGTTCCCACGCCAAGGATGAGCCTCGACTTCTCGGATGTACCGAGAACGAGCTTGGTCTCCGTGACTGGATCGAGTCCCAGGGACACACCTTGGTGACCACCTCCGACAAGGACGGTGAGAACTCAACCGTCGACAAGGAGATTGTGGATGCTGAGATTGTTATCACCACCCCCTTCCACCCCGCTTACATCACCAAGGAGCGAATTGACAAGGCCAAGAAGCTCAAGATCTGTATCACTGCCGGTGTTGGTTCCGACCATGTCGACCTTGATGCCGCCAACGCCCGAGACATTGCCGTCCTCGAGGTTACCGGATCTAACGTCCAGTCCGTCGCTGAGCACGTTGTCATGACCATGCTGGTTCTGGTCCGAAACTTCGTCCCCGCCCACGAGCAGATCATCGAGGGTGGCTGGAATGTCGCTGCTGTCGCCAAGGACTCTTACGACATTGAGGGTAAGGTCATTGGTACTGTCGGCGGTGGCCGAATTGGTCAGCGAGTCCTGAAGCGACTTGCACCCTTCAACCCCATGGAGCTCCTCTACTACGACTACCAGCCCATGCCCAAGGACGTGGAGAAGGAGATTGGCTGCCGACACGTCCCTGATCTTAAGGAGATGCTCTCTGTCTGTGACATTGTTACCATCAACTGTCCTCTCCACGACTCTACCAAGGGTATGTTCAACAAGGAACTCATCTCCCACATGAAGGATGGTGCTTGGCTCGTCAACACCGCCCGAGGTGCCATCTGTGTCACTGACGACATTGTTGAGGCCCTCAAGTCCGGTAAGATCCGAGGCTACGGTGGTGATGTCTGGAACCCCCAGCCTGCCCCCAAGGACCACCCCTGGAGATACATGCGAAACAAGTGGGGCGGTGGAAACGCCATGACCCCCCATATCTCCGGTACCTCCATCGATGCCCAGGGCCGATACTCCGAGGGTACCAAGAACATTCTCGAGGTCTACTTCTCCGGAAAGCAGAACTACCGACCTCAGGATGTCATCTGTATCAACGGCCACTACGGCACTAAGGCTTACGGTGACGACAAGGAGCACAAGGCCCACGTTTCCAAATAAGCACTTTAGCTGTTTAACTTATAAGCAATTGACTACTAGAATTTGC
modifications: YALI0E14256g

Tested on: Y. lipolytica JMY2900
Assay: qPCR of putative FDH gene transcription upon induction with sodium formate
Assay type: cell-based, Yarrowia lipolytica
Conditions: YNB with 0.5% sodium formate, 6 h, 28° C., vs absence of formate; qPCR normalised to actin
Method: FIG. 3: Transcription levels of the FDH genes of Yarrowia lipolytica W29 measured by qPCR, normalised to actin (ACT1) expression. Yarrowia lipolytica was grown in YNB supplemented with 1% glucose and 0.5% yeast extract at 15 h at 28° C., before being washed and transferred into YNB with 0.5% of sodium formate for induction and grown for 6 h.
The inducibility of the putative FDH genes with formate was then tested by qPCR. YALI0E14256g1_1 and the nine putative FDH with the highest % identity to YALI0E14256g1_1 were selected for testing. Y. lipolytica JMY2900 was cultured in YNB media supplemented with 1% glucose and 0.5% yeast extract for 15 h at 28° C. Cells were washed with distilled water and cultured in fresh liquid YNB media supplemented with 0.5% sodium formate at 28° C. with agitation at 160 rpm, before being harvested at 6 h post-inoculated. Cells were frozen in liquid nitrogen and stored at −80° C. RNA was subsequently extracted using the RNeasy Mini Kit (Qiagen), and 2 μg was treated with DNAse (Ambion; Life Science Technologies, Saint-Aubain, France). cDNA was synthesised using the Maxima First Strand cDNA synthesis kit (Thermo Fischer Scientific, Villebon sur Yvette, France). qPCR was then performed using the SYBRgreen mastermix (Thermo Fischer Scientific) with gene-specific primers designed using Primer3 software. Relative expression levels were calculated using ΔCT and ΔΔCT methods. Expression levels were normalised to actin.

| Molecule | Fold increase on induction (fold change expression of putative FDH genes upon induction with sodium formate) [fold] |
| --- | --- |
| B1 | 4.2 |
| B2 | 4.9 |
| B3 | 8.1 |
| B4 | 23.9 |
